System: Escherichia coli TOP10
Assay: shrunken log2 fold change of peptide-encoding DNA abundance (4.5 h post-induction vs induction); higher = less antimicrobial activity (less host growth inhibition)
Details: time post-induction: 4.5 h; library: site-saturation at positions 5, 18, 19, 20
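Also: peptides expressed intracellularly from a pBAD plasmid library in pooled LB shake-flask culture, induced with 0.3% L-arabinose, DNA abundance read by NGS, three biological replicates, DESeq2 with apeglm shrinkage.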

RRIRGRPPRLPRPRPRPCEHPRP
shrunken log2 fold change: 0.149

RRIRGRPPRLPRPRPRPCENPRP
shrunken log2 fold change: 0.136

RRIRGRPPRLPRPRPRPCESPRP
shrunken log2 fold change: 0.169

RRIRGRPPRLPRPRPRPCKVPRP
shrunken log2 fold change: 0.00141

RRIRGRPPRLPRPRPRPCLGPRP
shrunken log2 fold change: 0.0741

RRIRGRPPRLPRPRPRPCMFPRP
shrunken log2 fold change: 0.797

RRIRGRPPRLPRPRPRPCMSPRP
shrunken log2 fold change: 0.151

RRIRGRPPRLPRPRPRPCNLPRP
shrunken log2 fold change: -0.0958

RRIRGRPPRLPRPRPRPCPEPRP
shrunken log2 fold change: -0.0446

RRIRGRPPRLPRPRPRPCRSPRP
shrunken log2 fold change: -0.0741

RRIRGRPPRLPRPRPRPCSGPRP
shrunken log2 fold change: -0.111

RRIRGRPPRLPRPRPRPCSRPRP
shrunken log2 fold change: 0.0838

RRIRGRPPRLPRPRPRPCTHPRP
shrunken log2 fold change: -0.0414

RRIRGRPPRLPRPRPRPCTKPRP
shrunken log2 fold change: 0.235

RRIRGRPPRLPRPRPRPCTMPRP
shrunken log2 fold change: -0.063

RRIRGRPPRLPRPRPRPCTYPRP
shrunken log2 fold change: 0.00971

RRIRGRPPRLPRPRPRPCVAPRP
shrunken log2 fold change: 1.1

RRIRGRPPRLPRPRPRPCVEPRP
shrunken log2 fold change: 0.953

RRIRGRPPRLPRPRPRPCVHPRP
shrunken log2 fold change: 0.107

RRIRGRPPRLPRPRPRPCVRPRP
shrunken log2 fold change: 0.079

RRIRGRPPRLPRPRPRPCWMPRP
shrunken log2 fold change: 0.301

RRIRGRPPRLPRPRPRPCYHPRP
shrunken log2 fold change: -0.345

RRIRGRPPRLPRPRPRPCYIPRP
shrunken log2 fold change: 0.0972

RRIRGRPPRLPRPRPRPCYLPRP
shrunken log2 fold change: -0.177

RRIRGRPPRLPRPRPRPDDCPRP
shrunken log2 fold change: 0.152

RRIRGRPPRLPRPRPRPDDPPRP
shrunken log2 fold change: 0.0369

RRIRGRPPRLPRPRPRPDEKPRP
shrunken log2 fold change: 0.233

RRIRGRPPRLPRPRPRPDGAPRP
shrunken log2 fold change: 1.03

RRIRGRPPRLPRPRPRPDGNPRP
shrunken log2 fold change: 0.276

RRIRGRPPRLPRPRPRPDGRPRP
shrunken log2 fold change: 0.169

RRIRGRPPRLPRPRPRPDKHPRP
shrunken log2 fold change: 0.0564

RRIRGRPPRLPRPRPRPDLKPRP
shrunken log2 fold change: 0.0305

RRIRGRPPRLPRPRPRPDMCPRP
shrunken log2 fold change: 1.27

RRIRGRPPRLPRPRPRPDMGPRP
shrunken log2 fold change: 0.269

RRIRGRPPRLPRPRPRPDMRPRP
shrunken log2 fold change: 1.36

RRIRGRPPRLPRPRPRPDNCPRP
shrunken log2 fold change: -0.0626

RRIRGRPPRLPRPRPRPDPIPRP
shrunken log2 fold change: 0.126

RRIRGRPPRLPRPRPRPDPSPRP
shrunken log2 fold change: 0.414

RRIRGRPPRLPRPRPRPDREPRP
shrunken log2 fold change: 0.34

RRIRGRPPRLPRPRPRPDSAPRP
shrunken log2 fold change: 0.525

RRIRGRPPRLPRPRPRPDSLPRP
shrunken log2 fold change: -0.0456

RRIRGRPPRLPRPRPRPDVRPRP
shrunken log2 fold change: 0.0237

RRIRGRPPRLPRPRPRPDWGPRP
shrunken log2 fold change: 0.242

RRIRGRPPRLPRPRPRPDWIPRP
shrunken log2 fold change: 0.243

RRIRGRPPRLPRPRPRPDYFPRP
shrunken log2 fold change: -0.0114

RRIRGRPPRLPRPRPRPEASPRP
shrunken log2 fold change: 0.708

RRIRGRPPRLPRPRPRPECQPRP
shrunken log2 fold change: 0.381

RRIRGRPPRLPRPRPRPEEDPRP
shrunken log2 fold change: -0.0499

RRIRGRPPRLPRPRPRPEHDPRP
shrunken log2 fold change: 0.835

RRIRGRPPRLPRPRPRPEIRPRP
shrunken log2 fold change: 0.122

RRIRGRPPRLPRPRPRPELHPRP
shrunken log2 fold change: 1.04

RRIRGRPPRLPRPRPRPELPPRP
shrunken log2 fold change: 1.33

RRIRGRPPRLPRPRPRPEMEPRP
shrunken log2 fold change: -0.0341

RRIRGRPPRLPRPRPRPEMHPRP
shrunken log2 fold change: 0.242

RRIRGRPPRLPRPRPRPEPYPRP
shrunken log2 fold change: 0.141

RRIRGRPPRLPRPRPRPEQKPRP
shrunken log2 fold change: 0.105

RRIRGRPPRLPRPRPRPEQTPRP
shrunken log2 fold change: 0.388

RRIRGRPPRLPRPRPRPERRPRP
shrunken log2 fold change: 0.277

RRIRGRPPRLPRPRPRPESVPRP
shrunken log2 fold change: 1.42

RRIRGRPPRLPRPRPRPETHPRP
shrunken log2 fold change: 2.22

RRIRGRPPRLPRPRPRPETPPRP
shrunken log2 fold change: 3.43

RRIRGRPPRLPRPRPRPETTPRP
shrunken log2 fold change: 2.32

RRIRGRPPRLPRPRPRPETWPRP
shrunken log2 fold change: 1.28

RRIRGRPPRLPRPRPRPEVIPRP
shrunken log2 fold change: 0.073

RRIRGRPPRLPRPRPRPEVLPRP
shrunken log2 fold change: 1.83

RRIRGRPPRLPRPRPRPEVTPRP
shrunken log2 fold change: 0.168

RRIRGRPPRLPRPRPRPEWFPRP
shrunken log2 fold change: 0.683

RRIRGRPPRLPRPRPRPEYLPRP
shrunken log2 fold change: 0.468

RRIRGRPPRLPRPRPRPEYPPRP
shrunken log2 fold change: 0.77

RRIRGRPPRLPRPRPRPEYSPRP
shrunken log2 fold change: 0.445

RRIRGRPPRLPRPRPRPEYYPRP
shrunken log2 fold change: 0.166

RRIRGRPPRLPRPRPRPFANPRP
shrunken log2 fold change: 0.0848

RRIRGRPPRLPRPRPRPFCVPRP
shrunken log2 fold change: 0.392

RRIRGRPPRLPRPRPRPFDQPRP
shrunken log2 fold change: 0.2

RRIRGRPPRLPRPRPRPFEDPRP
shrunken log2 fold change: 0.392

RRIRGRPPRLPRPRPRPFEFPRP
shrunken log2 fold change: -0.157

RRIRGRPPRLPRPRPRPFESPRP
shrunken log2 fold change: 0.0306

RRIRGRPPRLPRPRPRPFHPPRP
shrunken log2 fold change: -0.124

RRIRGRPPRLPRPRPRPFIAPRP
shrunken log2 fold change: 0.245

RRIRGRPPRLPRPRPRPFIWPRP
shrunken log2 fold change: 0.351

RRIRGRPPRLPRPRPRPFKAPRP
shrunken log2 fold change: 0.2

RRIRGRPPRLPRPRPRPFMAPRP
shrunken log2 fold change: 0.211

RRIRGRPPRLPRPRPRPFMNPRP
shrunken log2 fold change: -0.116

RRIRGRPPRLPRPRPRPFMRPRP
shrunken log2 fold change: 0.567

RRIRGRPPRLPRPRPRPFMSPRP
shrunken log2 fold change: -0.192

RRIRGRPPRLPRPRPRPFMVPRP
shrunken log2 fold change: -0.131

RRIRGRPPRLPRPRPRPFPFPRP
shrunken log2 fold change: -0.0622

RRIRGRPPRLPRPRPRPFQHPRP
shrunken log2 fold change: -0.0674

RRIRGRPPRLPRPRPRPFQKPRP
shrunken log2 fold change: -0.0668

RRIRGRPPRLPRPRPRPFRIPRP
shrunken log2 fold change: -0.212

RRIRGRPPRLPRPRPRPFRPPRP
shrunken log2 fold change: 0.021

RRIRGRPPRLPRPRPRPFSFPRP
shrunken log2 fold change: 0.268

RRIRGRPPRLPRPRPRPFTEPRP
shrunken log2 fold change: 0.104

RRIRGRPPRLPRPRPRPFYPPRP
shrunken log2 fold change: -0.62

RRIRGRPPRLPRPRPRPGADPRP
shrunken log2 fold change: 1.48

RRIRGRPPRLPRPRPRPGARPRP
shrunken log2 fold change: 0.953

RRIRGRPPRLPRPRPRPGDPPRP
shrunken log2 fold change: 0.779

RRIRGRPPRLPRPRPRPGDSPRP
shrunken log2 fold change: 0.276

RRIRGRPPRLPRPRPRPGEAPRP
shrunken log2 fold change: 1.48

RRIRGRPPRLPRPRPRPGEIPRP
shrunken log2 fold change: 0.727

RRIRGRPPRLPRPRPRPGEKPRP
shrunken log2 fold change: 1.4

RRIRGRPPRLPRPRPRPGEMPRP
shrunken log2 fold change: 1.31

RRIRGRPPRLPRPRPRPGEYPRP
shrunken log2 fold change: 0.3

RRIRGRPPRLPRPRPRPGFGPRP
shrunken log2 fold change: 0.649

RRIRGRPPRLPRPRPRPGFRPRP
shrunken log2 fold change: 0.399

RRIRGRPPRLPRPRPRPGGDPRP
shrunken log2 fold change: 0.937

RRIRGRPPRLPRPRPRPGGHPRP
shrunken log2 fold change: 0.779

RRIRGRPPRLPRPRPRPGGIPRP
shrunken log2 fold change: 0.402

RRIRGRPPRLPRPRPRPGIDPRP
shrunken log2 fold change: 0.607

RRIRGRPPRLPRPRPRPGIFPRP
shrunken log2 fold change: 0.254

RRIRGRPPRLPRPRPRPGKFPRP
shrunken log2 fold change: 0.427

RRIRGRPPRLPRPRPRPGKKPRP
shrunken log2 fold change: -0.0917

RRIRGRPPRLPRPRPRPGKQPRP
shrunken log2 fold change: 0.0206

RRIRGRPPRLPRPRPRPGMPPRP
shrunken log2 fold change: 0.406

RRIRGRPPRLPRPRPRPGQEPRP
shrunken log2 fold change: 0.974

RRIRGRPPRLPRPRPRPGRTPRP
shrunken log2 fold change: 0.498

RRIRGRPPRLPRPRPRPGSAPRP
shrunken log2 fold change: 0.972

RRIRGRPPRLPRPRPRPGSEPRP
shrunken log2 fold change: 0.864

RRIRGRPPRLPRPRPRPGSFPRP
shrunken log2 fold change: 0.286

RRIRGRPPRLPRPRPRPGSIPRP
shrunken log2 fold change: 0.185

RRIRGRPPRLPRPRPRPGSRPRP
shrunken log2 fold change: 0.565

RRIRGRPPRLPRPRPRPGTKPRP
shrunken log2 fold change: 0.652

RRIRGRPPRLPRPRPRPGVRPRP
shrunken log2 fold change: 0.659

RRIRGRPPRLPRPRPRPGWPPRP
shrunken log2 fold change: 1.18

RRIRGRPPRLPRPRPRPHAHPRP
shrunken log2 fold change: 0.895

RRIRGRPPRLPRPRPRPHFHPRP
shrunken log2 fold change: 0.603

RRIRGRPPRLPRPRPRPHGAPRP
shrunken log2 fold change: -0.00969

RRIRGRPPRLPRPRPRPHGFPRP
shrunken log2 fold change: 0.422

RRIRGRPPRLPRPRPRPHHHPRP
shrunken log2 fold change: -0.139

RRIRGRPPRLPRPRPRPHHTPRP
shrunken log2 fold change: -0.12

RRIRGRPPRLPRPRPRPHIFPRP
shrunken log2 fold change: 0.224

RRIRGRPPRLPRPRPRPHKAPRP
shrunken log2 fold change: -0.0636

RRIRGRPPRLPRPRPRPHKPPRP
shrunken log2 fold change: 0.388

RRIRGRPPRLPRPRPRPHLSPRP
shrunken log2 fold change: 0.283

RRIRGRPPRLPRPRPRPHMHPRP
shrunken log2 fold change: 0.448

RRIRGRPPRLPRPRPRPHMKPRP
shrunken log2 fold change: 0.103

RRIRGRPPRLPRPRPRPHMRPRP
shrunken log2 fold change: 0.997

RRIRGRPPRLPRPRPRPHNDPRP
shrunken log2 fold change: 0.0426

RRIRGRPPRLPRPRPRPHNWPRP
shrunken log2 fold change: 0.18

RRIRGRPPRLPRPRPRPHQGPRP
shrunken log2 fold change: -0.0236

RRIRGRPPRLPRPRPRPHRAPRP
shrunken log2 fold change: 0.108

RRIRGRPPRLPRPRPRPHRTPRP
shrunken log2 fold change: 0.271

RRIRGRPPRLPRPRPRPHRWPRP
shrunken log2 fold change: 0.252

RRIRGRPPRLPRPRPRPHSYPRP
shrunken log2 fold change: 0.231

RRIRGRPPRLPRPRPRPHTCPRP
shrunken log2 fold change: 0.104

RRIRGRPPRLPRPRPRPHYNPRP
shrunken log2 fold change: -0.265

RRIRGRPPRLPRPRPRPHYQPRP
shrunken log2 fold change: -0.15

RRIRGRPPRLPRPRPRPIASPRP
shrunken log2 fold change: 0.524

RRIRGRPPRLPRPRPRPICEPRP
shrunken log2 fold change: 0.396

RRIRGRPPRLPRPRPRPICHPRP
shrunken log2 fold change: 0.378
